Assay results from patent US20240076386A1 (Pfizer, published 2024).

T1: mouse E-selectin extracellular domain with 10 His purification tail (mouse, UniProt Q00690 22-557)
T1 construct: also called soluable mouse E-selectin extracellular domain; muE-Selctin
T1 sequence: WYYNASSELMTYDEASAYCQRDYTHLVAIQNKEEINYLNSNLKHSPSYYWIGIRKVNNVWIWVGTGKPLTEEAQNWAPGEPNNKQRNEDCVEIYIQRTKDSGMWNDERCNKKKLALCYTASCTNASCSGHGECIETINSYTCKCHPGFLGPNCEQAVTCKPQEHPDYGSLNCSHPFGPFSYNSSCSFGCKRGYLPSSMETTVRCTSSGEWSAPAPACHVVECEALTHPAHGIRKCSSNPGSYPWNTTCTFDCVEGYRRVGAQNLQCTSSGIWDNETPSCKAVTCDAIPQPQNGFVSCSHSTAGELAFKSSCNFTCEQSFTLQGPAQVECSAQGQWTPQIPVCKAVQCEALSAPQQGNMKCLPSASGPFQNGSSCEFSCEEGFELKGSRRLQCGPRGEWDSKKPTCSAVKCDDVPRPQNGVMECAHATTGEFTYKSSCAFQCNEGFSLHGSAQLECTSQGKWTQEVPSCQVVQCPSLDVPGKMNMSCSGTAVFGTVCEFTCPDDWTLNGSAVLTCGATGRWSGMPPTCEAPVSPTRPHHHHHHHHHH

T2: human E-selectin extracellular domain with 10 His purification tail (human, UniProt P16581 22-556)
T2 construct: also called soluable human E-selectin extracellular domain; rhE-Selectin
T2 sequence: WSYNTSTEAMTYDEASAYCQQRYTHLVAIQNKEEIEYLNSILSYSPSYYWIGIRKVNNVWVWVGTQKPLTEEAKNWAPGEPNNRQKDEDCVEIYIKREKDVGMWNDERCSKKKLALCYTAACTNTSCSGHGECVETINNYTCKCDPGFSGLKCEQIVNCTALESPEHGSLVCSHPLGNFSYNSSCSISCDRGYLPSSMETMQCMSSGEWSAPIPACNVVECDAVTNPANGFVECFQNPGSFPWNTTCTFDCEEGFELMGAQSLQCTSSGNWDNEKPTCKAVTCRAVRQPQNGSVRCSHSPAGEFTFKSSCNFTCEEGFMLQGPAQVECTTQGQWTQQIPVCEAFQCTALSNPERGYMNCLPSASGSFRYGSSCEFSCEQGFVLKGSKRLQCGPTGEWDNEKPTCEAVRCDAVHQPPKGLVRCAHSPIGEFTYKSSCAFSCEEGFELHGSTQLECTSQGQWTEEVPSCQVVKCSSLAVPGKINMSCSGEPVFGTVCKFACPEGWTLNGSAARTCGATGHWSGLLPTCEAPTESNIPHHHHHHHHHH

T3: soluble recombinant human E-selectin (R & D Systems, ADP1) (human, UniProt P16581 22-556)
T3 sequence (looked up): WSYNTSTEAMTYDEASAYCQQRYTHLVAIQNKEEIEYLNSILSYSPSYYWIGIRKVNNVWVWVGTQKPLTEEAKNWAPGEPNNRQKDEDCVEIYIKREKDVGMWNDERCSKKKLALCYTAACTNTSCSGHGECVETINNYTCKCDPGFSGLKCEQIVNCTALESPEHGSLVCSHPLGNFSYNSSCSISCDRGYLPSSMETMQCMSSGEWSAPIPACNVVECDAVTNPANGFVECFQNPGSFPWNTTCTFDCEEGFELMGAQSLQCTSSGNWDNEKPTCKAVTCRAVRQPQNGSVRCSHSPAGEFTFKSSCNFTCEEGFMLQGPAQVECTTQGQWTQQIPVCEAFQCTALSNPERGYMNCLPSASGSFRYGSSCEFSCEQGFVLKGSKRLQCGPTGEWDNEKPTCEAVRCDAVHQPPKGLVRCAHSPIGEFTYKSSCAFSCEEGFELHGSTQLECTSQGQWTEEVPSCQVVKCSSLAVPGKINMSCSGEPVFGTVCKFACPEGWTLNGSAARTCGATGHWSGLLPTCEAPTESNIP

B1: anti-E-selectin antibody 0158 chimera (antibody, human IgG1, kappa, V domains shown)
VH: QVQLKESGPGLVQPSETLSLTCTVSGFSISTYNVHWLRQPPGKGLEWMGMMWSGGSPDYNSALKSRLSISRDTSKNQVFLKMNSLQSEDTTTYYCARWGGGFDYWGQGVMVTVSS
VL: DIVLTQSPTTLSVTPGETVSLSCRASHSIGTNLHWYQQKTNESPRLLIKFTSQSISGIPSRFSASGSGTDFTLNINNVEFDDVSSYFCQQTQSWPLTFGSGTKLEIKR
notes: rat VH/VL on effector-null human IgG1 and human kappa
B2: anti-E-selectin antibody 0180 chimera (antibody, human IgG1, kappa, V domains shown)
VH: EVQLQQSGAELGKPGTSVKLSCKVSGYKIRSSYMHWVNQRPGKGLEWIGRIDPANGNTIYGDKFKSKATLTSDTSSNTAYIQLSQLKSDDTAIYFCAIDIGTTFDYWGQGVMVTVSS
VL: DIQMTQSPSFLSASVGDRVTINCKASQHINRYLNWYQQKLGEAPKLLIYDANNLQTGIPSRFSGSGSGTDFTLTISSLQPEDVATYFCLQHNSWPNTFGAGTKLELKR
notes: as for B1
B3: anti-E-selectin antibody 0164 chimera (antibody, human IgG1, kappa, V domains shown)
VH: EVQLQQSGAEFGKPGTSVKLSCKVSGYNIRSSYMHWVNQRPGKGLEWIGRIDPANGNTIYAEKFKIKAILTADSSSNTAYMQLSQLKSDDTAIYFCAMDLYSTSEYWGQGVMVTVSS
VL: DIQMTQSPSFLSASVGDRVTINCKTSQNINRYLNWYQQKLGEAPKLLIYNANSLQTGIPSRFSASGSGTDFTLTINSLQPEDVATYFCLQDNSWPLTFGSGTKLEIKR
notes: as for B1
B4: anti-E-selectin antibody 0159 chimera (antibody, human IgG1, kappa, V domains shown)
VH: EVQLQQSGAELGKPGTSVKLSCKVSGYNIRSTYMHWVSQRPGKGLEWIGRIDPANGNTIYAEKFKRKATLTADTSSNTAYMQLSQLKSDDRAIYFCAMEVRVSFEYWGQGVMVTVSS
VL: DIQMTQSPSFLSASVGDRVTINCKASQNINKYLDWYQQKLGEGPKLLIYYTNNLHTGIPSRFSGSGSGTDFTLTISSLQPEDVATYFCLQHDSGYTFGAGTKLELKR
notes: as for B1
B5: anti-E-selectin antibody 0170 chimera (antibody, human IgG1, kappa, V domains shown)
VH: EVQLQQSGAELGKPGTSVKLSCKVSGYSIRSTYMHWVNQRPGKGLEWVGRIDPANGNTIYAERFKNKATLTADTSSNTAYMQLSQLKSDDTAIYFCAVEILGIFDYWGQGVMVTVSS
VL: DIQMTQSPSFLSASVGDRVTINCKASQNIDKYLDWYQQKLGEAPKLLMYNTNSLHTGIPSRFSGSGSGTDFTLTISSLQPEDVATYFCLQHNSGYTFGAGTKLELKR
notes: as for B1
B6: anti-E-selectin antibody 0039 chimera (antibody, human IgG1, kappa, V domains shown)
VH: QVQLKETGPGLVQPTQTLSITCTVSGFSLTGYYMQWVRQTPGKGLEWMGFIRSSGSTEYNSEFKSRLSISRDTSKNQVFLKMNSLKTEDTGVYYCARCPYKYSSFVYVGVMDAWGQGAPVTVSS
VL: EIVMTQSPTSMSTSIGERVTLNCKASQTVGINVDWYQQTPGQPPKLLIYGASNRHTGVPDRFTGSGFGRDFTLTISNVEAEDLAVYCCLQYGSIPHTFGPGTKLELKR
notes: as for B1

Columns and labels:
[1] = molecular target: T1, mouse E-selectin extracellular domain …; test: AlphaLISA competition vs sialyl Lewis A-PAA-biotin
Description: (§1) The neutralization ability of anti-E-selectin antibodies was measured in an AlphaLISA homogenous competition assay. […] This was incubated at room temperature for 15 minutes, followed by addition of 1.4 μL of human, mouse or cynomolgus monkey E-selectin added to a final concentration of 7 nM. This was again incubated at room temperature for 15 minutes. To this, 1.4 μL AlphaLISA beads was added (Ni-donor/SA-acceptor) for a final assay concentration of 10 μg/mL. This was incubated in the dark at room temperate for at least 10 hours. The plates were then read using the AlphaLISA protocol (Envision).

[2] = molecular target: T2, human E-selectin extracellular domain …; test: AlphaLISA competition vs sialyl Lewis A-PAA-biotin
Description: as §1

[3] = molecular target: T3, soluble recombinant human E-selectin (R …); test: cell-based or functional assay

| EC50 [1] | EC50 [2] | neutralization of HL-60 cell binding under physiological flow to soluble human E-selectin protein IC50 (nM) [3] | Binder |
| --- | --- | --- | --- |
| > 133 nM | < 1 nM | 17.9 nM | B1 |
| > 133 nM | < 1 nM | 225 nM | B2 |
| > 133 nM | < 1 nM | 1.7 nM | B3 |
| > 133 nM | < 1 nM | 21 nM | B4 |
| > 133 nM | < 1 nM | 74.2 nM | B5 |
| > 133 nM | < 1 nM | 265 nM | B6 |
